These results are taken from the supplement of paper PMC10567573.

The labels stand for the following.
B1: WSB1 (parent)
chain: FSHDGLHVASLADDKMVRFWRIDE
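Also: lentivirally expressed fusions sorted by FACS into six bins by GFP to DsRed ratio, PSI derived from sequencing read proportions per bin multiplied by bin number.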

In the series the parent is B1. As to the kind of experiment: protein stability index of a GFP-peptide fusion (GPS, HEK-293T) (PSI 1-6); higher = more stable. The note with it: c terminus: a fixed tail appended.
As to PSHDGLHVASLADDKMVRFWRIDE, the protein stability index stood at 3.52.
The same measure for DSHDGLHVASLADDKMVRFWRIDE: 4.46; for MSHDGLHVASLADDKMVRFWRIDE: 3.81.
HSHDGLHVASLADDKMVRFWRIDE: the protein stability index is 3.01.
CSHDGLHVASLADDKMVRFWRIDE: the protein stability index was 2.99.
Then SSHDGLHVASLADDKMVRFWRIDE, with 3.33.
The same measure for GSHDGLHVASLADDKMVRFWRIDE: 3.43; for FSHDGDHVASLADDKMVRFWRIDE: 2.07; for FSHDGKHVASLADDKMVRFWRIDE: 1.65.
The same measure for FSHDGIHVASLADDKMVRFWRIDE: 2.15.
For FSHDGCHVASLADDKMVRFWRIDE, the protein stability index turned out to be 1.55.
Then FSHDGHHVASLADDKMVRFWRIDE, with 2.27; and FSHDGNHVASLADDKMVRFWRIDE, with 3.26; and FSHDGPHVASLADDKMVRFWRIDE, with 1.63.
On to FSHDGTHVASLADDKMVRFWRIDE, for which the protein stability index was found to be 1.67.
Then FSHDGQHVASLADDKMVRFWRIDE, with 2.33; and FSHDGFHVASLADDKMVRFWRIDE, with 2.43; and FSHDGMHVASLADDKMVRFWRIDE, with 2.41.
For the variant FSHDGRHVASLADDKMVRFWRIDE, the protein stability index was 1.92.
The same measure for FSHDGAHVASLADDKMVRFWRIDE: 1.98; for FSHDMLHVASLADDKMVRFWRIDE: 3.4; for FSHDLLHVASLADDKMVRFWRIDE: 1.74.
As to FSHDDLHVASLADDKMVRFWRIDE, the protein stability index is 3.16.
As to FSHDILHVASLADDKMVRFWRIDE, the protein stability index turned out to be 1.89.
Then FSHDCLHVASLADDKMVRFWRIDE, with 1.34; and FSHDELHVASLADDKMVRFWRIDE, with 2.67.
Take FSHDALHVASLADDKMVRFWRIDE: the protein stability index was determined as 1.92.
Take FSHDVLHVASLADDKMVRFWRIDE: the protein stability index came out at 2.61.
For FSHDKLHVASLADDKMVRFWRIDE, the protein stability index amounted to 1.96.
On to FSHDRLHVASLADDKMVRFWRIDE, for which the protein stability index is 2.07.
Take FSHDYLHVASLADDKMVRFWRIDE: the protein stability index was found to be 1.27.
Take FSHDTLHVASLADDKMVRFWRIDE: the protein stability index is 2.27.
The same measure for FSHDNLHVASLADDKMVRFWRIDE: 3.01; for FSHDPLHVASLADDKMVRFWRIDE: 1.81.
Then FSHDQLHVASLADDKMVRFWRIDE, with 2.15; and FSKDGLHVASLADDKMVRFWRIDE, with 2.08.
On to FSPDGLHVASLADDKMVRFWRIDE, for which the protein stability index came out at 1.67.
As to FSEDGLHVASLADDKMVRFWRIDE, the protein stability index came to 1.71.
The same measure for FSADGLHVASLADDKMVRFWRIDE: 2.89; for FSCDGLHVASLADDKMVRFWRIDE: 3.26; for FSSDGLHVASLADDKMVRFWRIDE: 3.07.
For the variant FSWDGLHVASLADDKMVRFWRIDE, the protein stability index turned out to be 1.62.
With FSVDGLHVASLADDKMVRFWRIDE, the protein stability index was determined as 1.11.
Then FSNDGLHVASLADDKMVRFWRIDE, with 1.92; and FSDDGLHVASLADDKMVRFWRIDE, with 2.2.
FSLDGLHVASLADDKMVRFWRIDE: the protein stability index is 1.37.
Then FSQDGLHVASLADDKMVRFWRIDE, with 2.03; and FSYDGLHVASLADDKMVRFWRIDE, with 1.19; and FSMDGLHVASLADDKMVRFWRIDE, with 1.79.
Consider FSTDGLHVASLADDKMVRFWRIDE, for which the protein stability index came to 1.89.
In the case of FSGDGLHVASLADDKMVRFWRIDE, the protein stability index was 2.95.
With FSHHGLHVASLADDKMVRFWRIDE, the protein stability index amounted to 1.43.
FSHPGLHVASLADDKMVRFWRIDE: the protein stability index is 2.
Then FSHEGLHVASLADDKMVRFWRIDE, with 1.94.
Regarding FSHKGLHVASLADDKMVRFWRIDE, the protein stability index turned out to be 1.8.
Turning to FSHYGLHVASLADDKMVRFWRIDE, the protein stability index worked out at 1.65.
Consider FSHNGLHVASLADDKMVRFWRIDE, for which the protein stability index stood at 2.
For FSHCGLHVASLADDKMVRFWRIDE, the protein stability index is 1.73.
The same measure for FSHLGLHVASLADDKMVRFWRIDE: 1.53.
Then FSHTGLHVASLADDKMVRFWRIDE, with 2.1; and FSHDGLTVASLADDKMVRFWRIDE, with 1.65; and FSHDGLDVASLADDKMVRFWRIDE, with 3.61.
The same measure for FSHDGLPVASLADDKMVRFWRIDE: 2.09; for FSHDGLEVASLADDKMVRFWRIDE: 1.84; for FSHDGLNVASLADDKMVRFWRIDE: 1.68.
Turning to FSHDGLVVASLADDKMVRFWRIDE, the protein stability index was 2.42.
FSHDGLMVASLADDKMVRFWRIDE: the protein stability index came out at 1.03.
Turning to FSHDGLGVASLADDKMVRFWRIDE, the protein stability index is 1.4.
For the variant FSHDGLKVASLADDKMVRFWRIDE, the protein stability index was determined as 1.17.
Turning to FSHDGLIVASLADDKMVRFWRIDE, the protein stability index amounted to 2.17.
Then FSHDGLLVASLADDKMVRFWRIDE, with 1; and FSHDGLRVASLADDKMVRFWRIDE, with 3.03; and FSHDGLFVASLADDKMVRFWRIDE, with 2.87.
With FSHDGLQVASLADDKMVRFWRIDE, the protein stability index was 1.08.
As for FSHDGLAVASLADDKMVRFWRIDE, the protein stability index came out at 1.58.
As for FSHDGLCVASLADDKMVRFWRIDE, the protein stability index was 1.86.
For the variant FYHDGLHVASLADDKMVRFWRIDE, the protein stability index came to 1.83.
The same measure for FDHDGLHVASLADDKMVRFWRIDE: 3.79; for FVHDGLHVASLADDKMVRFWRIDE: 2.64; for FNHDGLHVASLADDKMVRFWRIDE: 2.78.
Then FMHDGLHVASLADDKMVRFWRIDE, with 3.12; and FRHDGLHVASLADDKMVRFWRIDE, with 2.61; and FEHDGLHVASLADDKMVRFWRIDE, with 2.34.
Then FGHDGLHVASLADDKMVRFWRIDE, with 1.15; and FLHDGLHVASLADDKMVRFWRIDE, with 1.58.
For FFHDGLHVASLADDKMVRFWRIDE, the protein stability index came to 1.97.
FPHDGLHVASLADDKMVRFWRIDE: the protein stability index worked out at 1.69.
For FIHDGLHVASLADDKMVRFWRIDE, the protein stability index worked out at 2.46.
Then FSHDGLHVDSLADDKMVRFWRIDE, with 1.71.
For the variant FSHDGLHVISLADDKMVRFWRIDE, the protein stability index turned out to be 2.66.
Turning to FSHDGLHVESLADDKMVRFWRIDE, the protein stability index turned out to be 2.01.
For the variant FSHDGLHVHSLADDKMVRFWRIDE, the protein stability index was 1.7.
Turning to FSHDGLHVFSLADDKMVRFWRIDE, the protein stability index stood at 5.19.
Consider FSHDGLHVCSLADDKMVRFWRIDE, for which the protein stability index came to 2.51.
